Our source for the EC50 values is patent US20200270359A1 (Genmab, published 2020).

Assay [1] deals with T1, cynomolgus monkey (Macaca fascicularis) CD37 (cynomolgus monkey (Macaca fascicularis), UniProt P11049 1-281 (human entry)).
T1 construct: also called mfCD37; Cynomolgus CD37
T1 chain: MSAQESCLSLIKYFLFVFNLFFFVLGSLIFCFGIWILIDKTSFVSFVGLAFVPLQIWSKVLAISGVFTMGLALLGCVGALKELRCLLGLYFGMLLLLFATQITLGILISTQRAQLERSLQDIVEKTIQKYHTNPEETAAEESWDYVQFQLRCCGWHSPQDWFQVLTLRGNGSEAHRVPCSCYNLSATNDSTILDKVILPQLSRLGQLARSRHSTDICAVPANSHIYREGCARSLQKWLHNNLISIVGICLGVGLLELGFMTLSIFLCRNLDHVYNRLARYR
The experiment in a line: flow cytometry, A488-labeled antibody on B cells in cynomolgus monkey whole blood; average of 4 animals. How it is done:
(§1) Cells were pelleted and washed twice in 150 μL FACS buffer and resuspended in 150 μL TO-PRO-3 (end concentration 0.2 μM; Molecular Probes, cat no. T3605). Samples were measured by flow cytometry using an LSRFortessa flow cytometer. Binding is expressed as geometric mean of A488 fluorescence intensity for viable TO-PRO-3⁻/CD14⁻/CD19⁺ B-cells (human) or viable TO-PRO-3⁻/CD14⁻/CD19+/CD20+ B-cells (cynomolgus monkey). Log-transformed data were analyzed using best-fit values of a non-linear dose-response fit in GraphPad PRISM.

Assay [2] addresses T2, human (Homo sapiens) CD37 (human (Homo sapiens), UniProt P11049 1-281).
T2 construct: Full-length protein on cells: endogenous on Daudi cells, Raji cells and B cells in human blood; also called Leukocyte Antigen CD37; GP52-40
T2 sequence: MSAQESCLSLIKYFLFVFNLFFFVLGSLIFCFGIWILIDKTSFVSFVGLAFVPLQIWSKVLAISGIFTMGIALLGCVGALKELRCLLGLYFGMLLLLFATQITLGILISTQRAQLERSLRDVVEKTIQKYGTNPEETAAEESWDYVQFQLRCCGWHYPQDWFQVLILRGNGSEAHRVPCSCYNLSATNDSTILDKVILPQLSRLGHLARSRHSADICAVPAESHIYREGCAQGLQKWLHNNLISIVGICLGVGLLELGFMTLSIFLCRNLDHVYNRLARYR
In words: flow cytometry, A488-labeled antibody on B cells in human whole blood; average of 6 donors. How it is done: as §1

B1: bsIgG1-016-H5L2-LC90S-F405L-E430Gx010-H5L2-K409R-E430G (bispecific antibody)
heavy 1: not shown
light 1: DVVMTQSPSTLSASVGDRVTITCQASQNIDSNLAWYQQKPGKAPKFLIYYASNLPFGVPSRFKGSGSGTEFTLTISSLQPDDFATYYCQSADVGSTYVAAFGGGTKVEIKRTVAAPSVFIFPPSDEQLKSGTASVVCLLNNFYPREAKVQWKVDNALQSGNSQESVTEQDSKDSTYSLSSTLTLSKADYEKHKVYACEVTHQGLSSPVTKSFNRGEC
heavy 2: not shown
light 2: AYDMTQSPSTLSASVGDRVTITCQASQNIIDYLAWYQQKPGKAPKLLIHKASTLASGVPSRFKGSGSGTEFTLTISSLQPDDFATYYCQQGYSNSNIDNTFGGGTKVEIKRTVAAPSVFIFPPSDEQLKSGTASVVCLLNNFYPREAKVQWKVDNALQSGNSQESVTEQDSKDSTYSLSSTLTLSKADYEKHKVYACEVTHQGLSSPVTKSFNRGEC
As to B1, the EC50 in assay [1] is 0.63 µg/mL; in assay [2], 0.85 µg/mL.
